± gives the uncertainty stated by the source.
Experiment: amyloid nucleation score (Sup35N fusion, yeast selection) (log enrichment); library NNK3; higher = more nucleation; inactive = no reads after selection
In short: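 In psi-negative yeast, Sup35N fusions carrying peptides of 20 random codons were induced with 100 μM copper sulfate for 24 hours. The cells then grew 7 days at 30°C on medium lacking adenine and uracil, and plasmid inserts from input and output were Illumina-sequenced, excluding sequences with under 100 input reads. Nucleation score is the DiMSum log enrichment of output over input reads, centred on the mode score of non-aggregating sequences.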

| Substance | amyloid nucleation score |
| --- | --- |
| SAHEFIVDCRYESIRMFVII | inactive |
| SAKSRFSRIVSRFYHMVICA | inactive |
| SAQFRFKSSV | 1.35 ± 0.089 |
| SAREKIVLRVS | -0.684 ± 1.1 |
| SARSGAAISTSSNKVTPVYT | inactive |
| SASGGFVLFLWLVCEGTFAG | 0.069 ± 0.38 |
| SATFRSSVTLSRHPVNNLTP | 1.35 ± 0.082 |
| SAVLPLALVGHDTPNRAQLN | inactive |
| SAWQPWMKDRSS | inactive |
| SAYWCIPIPNITIWFNFFLL | 1.47 ± 0.11 |
| SCFCC | 3.09 ± 0.061 |
| SCFKDDCVGLLYYQSWSNDS | 0.501 ± 0.33 |
| SCIYMSC | 1.73 ± 0.073 |
| SCIYTMAIRNNKVRCYFRAG | inactive |
| SCLHHFMEDSEPMNMGRVVK | inactive |
| SCLHSSSFCKR | inactive |
| SCLHYVTVY | inactive |
| SCRCR | inactive |
| SCSFRVYYFRLYFMLRSGSV | -0.743 ± 0.82 |
| SCSWVREWYRRLHRWGCGQW | 0.656 ± 0.28 |
| SCTELFTPKGR | inactive |
| SCTLYAHALCPEQISPQFLH | inactive |
| SCVLTFGFLILLRVPSYSRI | inactive |

| Substance | amyloid nucleation score |
| --- | --- |
| SCVVFGSQTLRVVFFDRVSS | 0.184 ± 0.32 |
| SCYNYCRCVCPNVEASHTSL | -0.664 ± 1.1 |
| SCYTMAFPVLWVHAQYCMNK | inactive |
| SDCYCNSQAVAWLFDRVFVF | inactive |
| SDEGRAIPSATPFWEYCLMW | inactive |
| SDGSNKVLESRCDSLHNVIV | inactive |
| SDIGVCSLKICSTIILVANM | inactive |
| SDIHMMRCGVWLKNLMFMRK | inactive |
| SDLASASFCGH | 0.676 ± 0.2 |
| SDLFVSVFM | inactive |
| SDLYDVVEPVAMVTCDSKEK | inactive |
| SDQFLIMEDSCSTPGRRSFK | 0.408 ± 0.29 |
| SDSDMNKNMHMDSTHGRAMD | inactive |
| SDWRRISVLIMFTEARSFLV | inactive |
| SDYLFSQRGFVGSASCVLVM | inactive |
| SDYTYFYM | inactive |
| SEAIFMVVGVRYEMELRWM | -0.55 ± 1.4 |
| SEASYIIIFSGFSGFMPKLG | inactive |
| SEDLRETWGSSA | -0.377 ± 0.98 |
| SEISWQVLCKNEDEYCHFWE | inactive |
| SELLPNYTKGVLTGDIYSRY | inactive |
| SELTEVTSITDWF | inactive |
| SENGECKATVLCMLSSPVVC | inactive |

| Substance | amyloid nucleation score |
| --- | --- |
| SENMTGFLNRTSIISPWTYC | inactive |
| SESMDGNFQKCLSAVCALIE | inactive |
| SFFDYAHRASSVFLGIFPEP | inactive |
| SFFIALVNIFRCLN | 2.56 ± 0.059 |
| SFFKNGGELVMSCVSVSPDI | inactive |
| SFFTYRPQMMRCLSAIYTRM | inactive |
| SFGLWTGFGVMYVRIVDVTH | inactive |
| SFGSFMSHDEFSNVHSVGFP | inactive |
| SFHTDTPLMRHYIMRFYNDY | inactive |
| SFKAWIWSSMIAVGLTQRYS | inactive |
| SFKDCSVDSWFGSIIG | inactive |
| SFKMSVVAGVRTLGIFVWVF | inactive |
| SFKNNL | inactive |
| SFKTF | inactive |
| SFLRYNKSY | inactive |
| SFLWGFCRTKETGGSFMFNR | 0.264 ± 0.62 |
| SFMLVFNDSAWLTSAHVYWA | inactive |
| SFPINGYMFSGYLERWCFTS | inactive |
| SFSDYEDMAQHLAPEAYNKC | inactive |
| SFSFVDLGIHYLMCNDSKIT | inactive |
| SFSFVQGSVPSTSFGSLKLA | inactive |
| SFSFVVPQARYFPTC | inactive |
| SFSKNVVDL | inactive |

| Substance | amyloid nucleation score |
| --- | --- |
| SFSLKPTDYIFIIVRSRRNP | inactive |
| SFYGHVHMDTCCN | inactive |
| SFYNCTEVETHGRRICIFLY | inactive |
| SGAEDFQV | inactive |
| SGALAKDVSVGVCVRPARLY | 0.653 ± 0.19 |
| SGATLLC | inactive |
| SGATVLSLSMY | inactive |
| SGFILSCMLNPGTFTNDLMG | inactive |
| SGFYRENARILTV | inactive |
| SGGNLWGFVDTLFIGMRIRY | inactive |
| SGISFTCMRHEMVSLTGGL | inactive |
| SGKHPSYNREPKGSVSVLGA | inactive |
| SGLDMRYHWNFVICQATRSY | inactive |
| SGLKMCYLSTGEKSAHAGEV | inactive |
| SGLSDPPPLLE | inactive |
| SGMLDWDWVSRVSIGVCKVW | inactive |
| SGRRCKAICA | inactive |
| SGRVSTDEKLVKFLRN | inactive |
| SGSLPMRTMLFP | inactive |
| SGTGNGKIPMDRSVSDCVRE | 0.035 ± 0.37 |
| SGVSWTRPIWYLNWFTQSLW | inactive |
| SGVYHRICSISLYQVSMR | inactive |
| SGVYLNVIWNCDIGDING | 1.49 ± 0.12 |

| Substance | amyloid nucleation score |
| --- | --- |
| SGVYLTNNVWGFLYRATISG | inactive |
| SGWTTQVRNKDGWASQLVSE | inactive |
| SGYRIRVIHNMWAVGVKKRN | -0.487 ± 0.78 |
| SHHSL | inactive |
| SHLDGYICYCPLLKRWIDYR | -0.035 ± 0.59 |
| SHNLSWDIGHLGIV | inactive |
| SHSNKSMRVNALSKWLY | inactive |
| SHYFK | inactive |
| SIAIHWTLICGLYLSNSSRA | inactive |
| SICTLFACHAFAGRYTTQGG | 1.04 ± 0.2 |
| SIDGMWTMYRRSVKYGDQFH | inactive |
| SIDIVVVWTGAIQDFRVLCL | -0.594 ± 1.1 |
| SIEMQYNDMRLR | inactive |
| SIFIFYRYVFWRFMCDAVFS | inactive |
| SIFIMHGRMKF | 1.47 ± 0.072 |
| SIFLDEIDFKIT | 0.409 ± 0.16 |
| SIGVTCAPNNLHGCLILYRF | inactive |
| SIGWSMFDNSMVREIRTRTC | inactive |
| SIIGGWCGNE | inactive |
| SIIRNKFVAMNMNSVNM | 0.831 ± 0.095 |
| SINDLGLWNVTVKFLCK | -0.037 ± 0.63 |
| SIPRRNRDGLAWNARHNLQY | inactive |
| SIRISLEISGYSELSITFSC | inactive |

| Substance | amyloid nucleation score |
| --- | --- |
| SISAKVGSSGRLGRSPYRVD | inactive |
| SISQTIVCTRPRVSAMIWFC | inactive |
| SISWRYATTSDVSLWIFVQT | inactive |
| SITDESASPPSRWKLGRFR | inactive |
| SITRELGNETLYSLLGPRAF | inactive |
| SIVHGMA | inactive |
| SIVSRLF | inactive |
| SIWKISTRMQTFFCRNM | 1.46 ± 0.1 |
| SKACAVLAYNLVGFEFHFEF | 1.69 ± 0.074 |
| SKALVSLWFLISMMNPYFIR | inactive |
| SKARQEL | inactive |
| SKDGSSSTRQVTIVGRVLVF | inactive |
| SKFRFGRVNLNVT | inactive |
| SKHIIFSFIGDLI | 0.654 ± 0.11 |
| SKPLYNSWIPMCLLFKVPPF | inactive |
| SKPSYFHNFLFDKMSDRLCT | inactive |
| SKPYYYMVYIESEVVVYLFG | inactive |
| SKRFAIAEQVCNSF | inactive |
| SKRFSLGI | inactive |
| SKSHLTIVSSYDHFHYMVRV | inactive |
| SKSLMMDLCTYCHYLNVYRE | inactive |
| SKTGGFFNAVHASCPGVPLQ | inactive |
| SKTVDNGKMRKDWLGRQPWK | -0.362 ± 0.51 |

| Substance | amyloid nucleation score |
| --- | --- |
| SLAIMCCKIWPLLIMYILIT | inactive |
| SLCTSEYFHSTYRNITGLVL | inactive |
| SLCWSLNGFNLLISFDFRRN | 0.785 ± 0.14 |
| SLGMMVWVH | inactive |
| SLGSVVTSFASEMWTADGTR | inactive |
| SLIFQDGGDNVNDLKVCVDY | inactive |
| SLIGSRGPLNSGEVMMMLFK | inactive |
| SLIITTLTHEYCMCHRIWST | 2.25 ± 0.071 |
| SLISNCPIVWNRIWISYHFH | 0.738 ± 0.3 |
| SLISSALDIISDRYGLHVNN | inactive |
| SLIWPSYDYLDNFLGYYSLK | inactive |
| SLKFIELDMSIVVMSSDYFR | inactive |
| SLKRHQTWLDGVEVRVVYMP | inactive |
| SLLDDRSPGLWILKTKVTAF | inactive |
| SLLGSEGVSLIFLHYYWWSA | inactive |
| SLLTFCFHIESLWMWYWMCH | inactive |
| SLMSFRYLRTFKWRSMSILS | inactive |
| SLMSSATICTFMG | inactive |
| SLNEHNAGGIVTLHWQSIES | inactive |
